Laboratory results taken from patent US20040038369A1, “Airway-specific trypsin-like enzymes and method of using the same” (priority 2000, published 2004).

Experiments:
Assay type in all cases: cell-based
[1] = system: normal human airway epithelial cells; experiment: Calcium influx in normal human airway epithelial cells; conditions: AST 2 units/mL; trypsin 10 to 100 units/mL; SFLLRNamide 100 μM
Protocol: The Ca^2+ influx due to the AST was examined with confluent normal epithelial cells adhered to three 10 cm dishes (purchased from BioWhittaker Corp.). The cells were peeled with a 10 mM EDTA/HEPES-Tyrode buffer solution for 10 minutes, recovered by a centrifugal treatment at 800 rpm at room temperature for 5 minutes, and then resuspended in 5 mL of HEPES-Tyrode buffer solution-Ca^2+ (−) pH 7.4. The recovered cells (about 1.2×10^6 cells) were suspended in 5 mL of HEPES-Tyrode buffer solution (1 μg/mL, containing Fura2-AM) to load the Fura2-AM to the cells at 37° C. for one hour. The cells were recovered by a centrifugal treatment at 800 rpm at room temperature for 5 minutes, twice washed with HEPES-Tyrode buffer solution-Ca^2+ (−) pH 7.4, and then resuspended in […] of HEPES-Tyrode buffer solution-Ca^2+ (−) pH 7.4. The cell suspension was mixed with 5 μL of 1M CaCl2 to give a final concentration of 1 mM CaCl2, and then incubated in a shaded state at room temperature for 5 minutes. The prepared Fura2-AM-loaded infected cells were dispensed into a 96 well plate in a volume of 100 μL/well, further subjected to the dispensation of HEPES-Tyrode buffer solution-Ca^2+ (+) pH 7.4 in a volume of 80 μL/well, and then assayed with Fluorescence Drug Screening System (Hamamatsu Photonics Co.). […]

BEAS-2B = experiment: Calcium influx in airway epithelial cell strain BEAS-2B; conditions: AST 2 units/mL; trypsin 10 to 100 units/mL; SFLLRNamide 100 μM
Protocol: The Ca^2+ influx due to the AST was examined with respect to an airway epithelial cell strain BEAS-2B. The confluent cells adhered to six 10 cm dishes were used. The cells were peeled with a 10 mM EDTA/HEPES-Tyrode buffer solution for 10 minutes, recovered by a centrifugal treatment at 1,500 rpm at room temperature for 5 minutes, and then resuspended in 10 mL of HEPES-Tyrode buffer solution-Ca^2+ (−) pH 7.4. The recovered cells (about 1.1×10^7 cells) were suspended in 11 mL of HEPES-Tyrode buffer solution (1 μg/mL, containing Fura2-AM) to load the Fura2-AM at 37° C. for 30 minutes. The cells were recovered by a centrifugal treatment at 1,500 rpm at room temperature for 5 minutes, twice washed with HEPES-Tyrode buffer solution-Ca^2+ (−) pH 7.4, and then resuspended in 11 mL of HEPES-Tyrode buffer solution-Ca^2+ (−) pH 7.4. The cell suspension was mixed with […] of 1M CaCl2 to give a final concentration of 1 mM CaCl2, and then incubated in a shaded state at room temperature for 5 minutes. The prepared Fura2-AM-loaded infected cells were dispensed into a 96 well plate in a volume of 100 μL/well, further subjected to the dispensation of HEPES-Tyrode buffer solution-Ca^2+ (+) pH 7.4 in a volume of 80 μL/well, and then assayed with Fluorescence Drug Screening System (Hamamatsu Photonics Co.). […]

PAR-4 = target: T1, PAR-4 (Homo sapiens, UniProt Q96RI0); experiment: Calcium influx in PAR-4-expressing insect cells; conditions: AST 2 units/ml; trypsin, thrombin 0.1 to 10 units/mL
T1 construct: expressed in transfected cells; host or cells: Sf9 insect cells infected with recombinant baculovirus VL-PAR (pVL1393)
T1 sequence (Q96RI0 18-385): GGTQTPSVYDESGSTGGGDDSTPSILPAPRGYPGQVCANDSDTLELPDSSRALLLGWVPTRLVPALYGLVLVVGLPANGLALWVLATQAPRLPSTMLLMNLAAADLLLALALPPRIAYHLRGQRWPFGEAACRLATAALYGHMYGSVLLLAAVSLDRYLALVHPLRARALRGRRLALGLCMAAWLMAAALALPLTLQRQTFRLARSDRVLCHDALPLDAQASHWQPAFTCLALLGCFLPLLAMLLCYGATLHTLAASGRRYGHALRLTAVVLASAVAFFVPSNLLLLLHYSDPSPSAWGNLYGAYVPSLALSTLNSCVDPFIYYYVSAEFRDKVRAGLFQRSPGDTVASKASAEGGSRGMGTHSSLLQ
Protocol: (§1) The above-obtained recombinant baculovirus VL-PAR for expressing the PAR was used to infect 1.0×10^7 Sf9 cells sowed on a 75 cm^2 flask at an MOI=2, and was then left and stationally cultured at 27° C. for 40 hours. After the culture, the infected cells were recovered and then subjected to a calcium influx experiment to-confirm the function of the PAR.
(§2) The recovered infected cells (about 5×10^6 cells) were once washed with HEPES-Tyrode buffer solution-Ca^2+ (−) pH 7.4, and then suspended in 5 mL of HEPES-Tyrode buffer solution (containing Fura2-AM, 1 μg/mL) to load the Fura2-AM on the cells at 27° C. for 30 minutes. The suspension was centrifuged at 800 rpm at room temperature for 5 minutes to recover the cells. The cells were twice washed with HEPES-Tyrode buffer solution-Ca^2+ (−) pH 7.4 and then resuspended in 5 mL of HEPES-Tyrode buffer solution-Ca^2+ (−) pH 7.4. The cell suspension was mixed with 5 μL of 1M CaCl2 to give a final concentration of 1 mM CaCl2, and then incubated in a shaded state at room temperature for 5 minutes. The prepared Fura2-AM-loaded infected cells were dispensed into a 96 well plate in a volume of 100 μL/well, further subjected to the dispensation of HEPES-Tyrode buffer solution-C^2+ (+) pH 7.4 in a volume of 80 μL/well, and then assayed with a Fluorescence Drug Screening System (made by Hamamatsu Photonics Co.). […]

PAR-1 = target: T2, PAR-1 (Homo sapiens, UniProt P25116); experiment: Calcium influx in PAR-1-expressing insect cells; conditions: AST 2 units/mL; trypsin, thrombin 0.1 to 10 units/mL; SFLLRNamide 10 to 100 μM
T2 construct: expressed in transfected cells; host or cells: Sf9 insect cells infected with recombinant baculovirus VL-PAR (pVL1393)
T2 sequence (P25116 22-425): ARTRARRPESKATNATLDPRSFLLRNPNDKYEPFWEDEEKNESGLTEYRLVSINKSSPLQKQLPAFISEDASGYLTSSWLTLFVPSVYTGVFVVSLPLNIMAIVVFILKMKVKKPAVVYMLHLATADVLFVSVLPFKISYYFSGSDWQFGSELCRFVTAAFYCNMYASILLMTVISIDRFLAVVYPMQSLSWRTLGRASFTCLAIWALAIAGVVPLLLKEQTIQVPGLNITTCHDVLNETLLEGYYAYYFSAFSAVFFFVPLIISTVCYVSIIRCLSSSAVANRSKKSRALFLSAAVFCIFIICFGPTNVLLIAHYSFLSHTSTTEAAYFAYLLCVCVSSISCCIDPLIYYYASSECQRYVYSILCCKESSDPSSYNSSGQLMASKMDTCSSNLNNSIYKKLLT
Protocol: The recovered infected cells (about 5×10^6 cells) were once washed with HEPES-Tyrode buffer solution-Ca^2+ (−) pH 7.4, and then suspended in 5 mL of HEPES-Tyrode buffer solution (containing Fura2-AM, 1 μg/mL) to load the Fura2-AM on the cells at 27° C. for 30 minutes. The suspension was centrifuged at 800 rpm at room temperature for 5 minutes to recover the cells. The cells were twice washed with HEPES-Tyrode buffer solution-Ca^2+ (−) pH 7.4 and then resuspended in 5 mL of HEPES-Tyrode buffer solution-Ca^2+ (−) pH 7.4. The cell suspension was mixed with 5 μL of 1M CaCl2 to give a final concentration of 1 mM CaCl2, and then incubated in a shaded state at room temperature for 5 minutes. The prepared Fura2-AM-loaded infected cells were dispensed into a 96 well plate in a volume of 100 μL/well, further subjected to the dispensation of HEPES-Tyrode buffer solution-C^2+ (+) pH 7.4 in a volume of 80 μL/well, and then assayed with a Fluorescence Drug Screening System (made by Hamamatsu Photonics Co.). Namely, [intensity of 500 nm fluorescent light due to 340 nm exciting light]/[intensity of 500 nm fluorescent light due to 380 nm exciting light] (reflecting the concentration of calcium in the cells) was assayed.

PAR-2 = target: T3, PAR-2 (Homo sapiens, UniProt P55085); experiment: Calcium influx in PAR-2-expressing insect cells; conditions: AST 2 units/mL; trypsin, thrombin 0.1 to 10 units/mL; SFLLRNamide, SLIGRL 10 to 100 μM
T3 construct: expressed in transfected cells; host or cells: Sf9 insect cells infected with recombinant baculovirus VL-PAR (pVL1393)
T3 sequence (P55085 26-397): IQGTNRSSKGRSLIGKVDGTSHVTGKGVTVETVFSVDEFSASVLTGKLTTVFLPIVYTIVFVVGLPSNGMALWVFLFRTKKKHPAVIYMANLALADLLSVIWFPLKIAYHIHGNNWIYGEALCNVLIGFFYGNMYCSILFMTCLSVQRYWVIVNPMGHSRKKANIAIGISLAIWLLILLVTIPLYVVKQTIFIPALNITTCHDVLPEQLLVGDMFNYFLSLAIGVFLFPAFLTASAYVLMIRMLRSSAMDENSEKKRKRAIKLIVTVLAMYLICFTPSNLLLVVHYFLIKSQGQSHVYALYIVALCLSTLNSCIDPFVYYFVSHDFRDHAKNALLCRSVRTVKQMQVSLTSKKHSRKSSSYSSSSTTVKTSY
Protocol: as §1, §2

Measured: Ca2+ influx

B1: trypsin: trypsin originated from bovine pancreas (protein)
chain: IVGGYTCGANTVPYQVSLNSGYHFCGGSLINSQWVVSAAHCYKSGIQVRLGEDNINVVEGNEQFISASKSIVHPSYNSNTLNNDIMLIKLKSAASLNSRVASISLPTSCASAGTQCLISGWGNTKSSGTSYPDVLKCLKAPILSDSSCKSAYPGQITSNMFCAGYLEGGKDSCQGDSGGPVVCSGKLQGIVSWGSGCAQKNKPGVYTKVCNYVSWIKQTIASN
observed: [1] | BEAS-2B | PAR-4 | PAR-1 | PAR-2
